The data set has as its system K4 kissing-loop RNA reporter. Nature of the data set: apparent KD of K4 kissing-loop reporter; higher = weaker reporter binding. Particulars: Eterna round: R107. The protocol:
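RNA-MaP round R107: designed RNA switches with theophylline, tryptophan, arginine or FMN aptamers are transcribed on-chip within common flanks. They are titrated with a labelled K4 kissing-loop RNA reporter in RNA-MaP buffer (100 mM Tris pH 7.5, 80 mM KCl, 4 mM MgCl2), without ligand or with the indicated ligand. Median apparent KD per design.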

Where [1] appears, read: input ligand: theophylline 20 uM.
Where [2] appears, read: input ligand: tryptophan 2.4 mM.

The record followed here is the supplement of paper PMC9170038.
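Further: bound reporter read as fluorescence of individual clusters on recovered sequencing chips by microscopy, with normalized cluster intensities fitted with a binding model.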

On to “UAGGAGUGAUGUUCCUUUAGCAGGUAGGAAGGAGCGCCCAUUUGGGCAGGUAGGUCGCCUACUGGCCCUGAGUUAAACCUUAGGC [#11 K4 Arginine A Same State]”, for which the “apparent KD of K4 kissing-loop reporter” value reads like this: (input ligand: FMN 200 uM) 0.149 µM; (input ligand: arginine 13.2 mM) 0.181 µM; (input ligand: none) 0.15 µM; under setting [1], 0.207 µM; under setting [2], 0.127 µM.

Consider “UAGUCCUAGUGAUGGUCAUCACGUGGUGGGCGAGGACCGGUACGGCCGCCACUCGACUUUGCAGUGAUGUUGCAAACCGGACAAU [Exclusion - Tryptophan A (Freestyle 19)]”, for which the “apparent KD of K4 kissing-loop reporter” value came out at 0.333 µM (input ligand: FMN 200 uM); 0.322 µM (input ligand: arginine 13.2 mM); 0.311 µM (input ligand: none); 0.354 µM under setting [1]; 0.298 µM under setting [2].

For “UAUAUAUGAUGUGAUACCAGUGAAAAGCCAGUGAUGUUGGUAGAACUGGUAUAUAAAUGGCACCCUUGGCAGCACAAUCACGUAU [#28 K4 Theophylline B Exclusion]”, the “apparent KD of K4 kissing-loop reporter” value was found to be 0.119 µM (input ligand: FMN 200 uM); 0.108 µM (input ligand: arginine 13.2 mM); 0.114 µM (input ligand: none); 0.12 µM under setting [1]; 0.117 µM under setting [2].

On to “UAUAUAUGAUGUGAUACCAGUGAAGAGCCAGUGAUGUUGGUAGAACUGGUAUAUAAAUAACACCCUUGGCAGCACAAUCACGUAU [whbob_Ex_Theo_B_sa97]”, for which the “apparent KD of K4 kissing-loop reporter” value runs as follows: (input ligand: FMN 200 uM) 0.16 µM; (input ligand: arginine 13.2 mM) 0.152 µM; (input ligand: none) 0.17 µM; under setting [1], 0.212 µM; under setting [2], 0.164 µM.

With “UAUGGCGAGGGCCGCAUAUCAUUAAACCAGAAGGAUAUAUGUUACUAUAGAAGGUCUGCCGCUGCGAGUGAUGUUUGGAGUGAUC [theeternabot_sameState_KL_FMN_A_3]”, the “apparent KD of K4 kissing-loop reporter” value by setting is: (input ligand: FMN 200 uM) 0.326 µM; (input ligand: arginine 13.2 mM) 0.195 µM; (input ligand: none) 0.26 µM; under setting [1], 0.242 µM; under setting [2], 0.229 µM.

Turning to “UAUUAAUUGUCAGGAUAUCGAAAUCGAGUGAUGUUCGUAUAUCGACGAUAGUCGAUAUUAUUUAUACGAGAAGGGACAUUAUUUA [JR_SSFMNB_Sub003]”, the “apparent KD of K4 kissing-loop reporter” value runs as follows: (input ligand: FMN 200 uM) 0.347 µM; (input ligand: arginine 13.2 mM) 0.572 µM; (input ligand: none) 0.615 µM; under setting [1], 0.615 µM; under setting [2], 0.386 µM.

In the case of “UAUUCUGUUCGAAAGAACGGAAUUUCGGAAGGAGCGAGAGAAAUCUCAGGUAGGUCGCCGAAAUUAUUAGGUAGUGAUGUUACCU [Arginine A K4 5]”, the “apparent KD of K4 kissing-loop reporter” value runs as follows: (input ligand: FMN 200 uM) 0.126 µM; (input ligand: arginine 13.2 mM) 0.116 µM; (input ligand: none) 0.142 µM; under setting [1], 0.124 µM; under setting [2], 0.123 µM.

In the case of “UCCGUUGCGGCGGCCGCCACUGACUUAUUGAUUAGGUUGCCAGUGAUGUUGGCCACCGGUCAAUACAGGACCGGGCCAUAGCGGG [Retive]”, the “apparent KD of K4 kissing-loop reporter” value stood at 0.16 µM (input ligand: FMN 200 uM); 0.208 µM (input ligand: arginine 13.2 mM); 0.259 µM (input ligand: none); 0.148 µM under setting [1]; 0.11 µM under setting [2].

As to “UCCUAGGCUCGAAAGAGCCUAGGAUUAACUCAGGAUAUCCGGAAACGGAGAAGGGAGUAACUAGUGAUGUUAGGGAUUCCCUAUU”, the “apparent KD of K4 kissing-loop reporter” value runs as follows: (input ligand: FMN 200 uM) 0.208 µM; (input ligand: arginine 13.2 mM) 0.094 µM; (input ligand: none) 0.109 µM; under setting [1], 0.0879 µM; under setting [2], 0.0927 µM.

As for “UCCUAGGCUCGAAAGAGCCUAGGAUUUACUCAGGAUAUCCGGAAACGGAGAAGGGAGUAACUAGUGAUGUUAGGGAUUCCCUAUU”, the “apparent KD of K4 kissing-loop reporter” value stood at 0.552 µM (input ligand: FMN 200 uM); 0.113 µM (input ligand: arginine 13.2 mM); 0.123 µM (input ligand: none); 0.131 µM under setting [1]; 0.125 µM under setting [2].

On to “UCCUAGGCUCGAAAGAGCCUAGGUAAGACUCAGGAUAUCUGGAAACAGAGAAGGGAGCUACUAGUGAUGUUAGGAAUUCCCUAAG”, for which the “apparent KD of K4 kissing-loop reporter” value runs as follows: (input ligand: FMN 200 uM) 0.126 µM; (input ligand: arginine 13.2 mM) 0.097 µM; (input ligand: none) 0.124 µM; under setting [1], 0.119 µM; under setting [2], 0.106 µM.

On to “UCCUGCAAUCGACCACGAAAGUGGAUCGAUACCAGAGUCGAAAGACUCCCUUGGCAGCGAGUGAUGUUCGAAGCAGGUAAAUAAA [#SwitchBubble 22 #K4Late]”, for which the “apparent KD of K4 kissing-loop reporter” value (input ligand: FMN 200 uM) was determined as 0.52 µM; the “apparent KD of K4 kissing-loop reporter” value (input ligand: arginine 13.2 mM) is 0.383 µM; the “apparent KD of K4 kissing-loop reporter” value (input ligand: none) was found to be 0.453 µM; the “apparent KD of K4 kissing-loop reporter” value under setting [1] turned out to be 0.464 µM; the “apparent KD of K4 kissing-loop reporter” value under setting [2] is 0.383 µM.

In the case of “UCCUGCAAUCUGCCACGAAAGUGGAUUGAUACCAGAGUCGAAAGACUCCCUUGGCAGCGAGUGAUGUUCGACGCAGGUAAAUAAA [MatMod 5 - Jieux - Exclusion - Theophylline A]”, the “apparent KD of K4 kissing-loop reporter” value worked out at 0.142 µM (input ligand: FMN 200 uM); 0.224 µM (input ligand: arginine 13.2 mM); 0.178 µM (input ligand: none); 0.234 µM under setting [1]; 0.135 µM under setting [2].

Regarding “UCCUGCAAUGGACCACGAAAGUGGAUCGAUACCAGAGUCGAAAGACUCCCUUGGCAGCGAGUGAUGUUCGAAGCAGGUAAAUAAA [#SwitchBubble 21 #K4Late]”, the “apparent KD of K4 kissing-loop reporter” value (input ligand: FMN 200 uM) was found to be 0.492 µM; the “apparent KD of K4 kissing-loop reporter” value (input ligand: arginine 13.2 mM) came to 0.483 µM; the “apparent KD of K4 kissing-loop reporter” value (input ligand: none) came out at 0.478 µM; the “apparent KD of K4 kissing-loop reporter” value under setting [1] was found to be 0.41 µM; the “apparent KD of K4 kissing-loop reporter” value under setting [2] turned out to be 0.358 µM.

Turning to “UCGAGUUGACGAAGAGUCAACUCGUGUGAUACCAGUGACGAAAGUCACCCUUGGCAGCACUAUGCUAGUGAUGUUGGUAUUUAAG [#08 K4 Theophylline A Same State]”, the “apparent KD of K4 kissing-loop reporter” value turned out to be 0.19 µM (input ligand: FMN 200 uM); 0.0927 µM (input ligand: arginine 13.2 mM); 0.179 µM (input ligand: none); 0.105 µM under setting [1]; 0.127 µM under setting [2].

With “UCUAACGUUGAGGCGGCAGCGGGCCCAUCUAAGGAUAUCGGUUUACCGAGAAGGUAGUUGGACGAGAGUGAUGUUCUAUUGAGAG [theeternabot_sameState_KL_FMN_A_18]”, the “apparent KD of K4 kissing-loop reporter” value reads like this: (input ligand: FMN 200 uM) 0.207 µM; (input ligand: arginine 13.2 mM) 0.211 µM; (input ligand: none) 0.254 µM; under setting [1], 0.642 µM; under setting [2], 0.159 µM.

As for “UCUGGAGGAUAUGAUACCAGCAGUGAGAGAGAGGAAGUAUAGUGAUGUUAUAUGAGAGAAUGCCCUUGGCAGCGUGUGUAGUGGG [SSTheophylB.L]”, the “apparent KD of K4 kissing-loop reporter” value reads like this: (input ligand: FMN 200 uM) 0.175 µM; (input ligand: arginine 13.2 mM) 0.137 µM; (input ligand: none) 0.135 µM; under setting [1], 0.151 µM; under setting [2], 0.0866 µM.
